Laboratory results: article PMC9098913, “In vitro reconstitution of Escherichia coli divisome activation” (Nature Communications, 2022)
Like-named read-outs stand apart in the source and are kept apart here.

System: FtsZ
Conditions: for Pearson correlation coefficient (PCC) FtsA/FtsZ: 1.25 µM FtsZ
Procedure: Additionally, the reaction chamber contained 4 mM ATP and 4 mM GTP, as well as a scavenging system to minimize photobleaching effects: 30 mM d-glucose, 0.050 mg ml^−1 Glucose Oxidase, 0.016 mg ml^−1 Catalase, 1 mM DTT and 1 mM Trolox. Prior addition of all components a corresponding buffer volume was removed from the chamber to obtain a total reaction volume of 100 µl. The dynamic protein pattern was monitored by time-lapse TIRF microscopy at one frame per 2 s and 50 ms exposure time.
Time-lapse videos were first intensity-corrected and contrast-enhanced to avoid bleaching effects and simplify subsequent analysis. To remove contributions of X–Y drift, the videos were processed with the Linear Stack Alignment with SIFT plugin. […] Subsequently, regions of interest (ROIs) in the center of the stacks were chosen for colocalization analysis. The Pearson’s correlation coefficient (PCC) was quantified with the Image CorrelationJ 1o plugin. To extract information about the relative ratio of FtsZ/FtsA molecules (slope of linear regression), we also used the Image CorrelationJ 1o plugin. As an output, the plugin provides a scatterplot of FtsZ vs FtsA intensities, to which we fitted a linear slope y=k⋅x+d , where k is the slope and d the offset. The slope was used as an estimate for the ratio of FtsA molecules below FtsZ filaments[42].

B1: FtsA R286W (protein)
chain: MIKATDRKLVVGLEIGTAKVAALVGEVLPDGMVNIIGVGSCPSRGMDKGGVNDLESVVKCVQRAIDQAELMADCQISSVYLALSGKHISCQNEIGMVPISEEEVTQEDVENVVHTAKSVRVRDEHRVLHVIPQEYAIDYQEGIKNPVGLSGVRMQAKVHLITCHNDMAKNIVKAVERCGLKVDQLIFAGLASSYSVLTEDERELGVCVVDIGGGTMDIAVYTGGALRHTKVIPYAGNVVTSDIAYAFGTPPSDAEAIKVRHGCALGSIVGKDESVEVPSVGGRPPWSLQRQTLAEVIEPRYTELLNLVNEEILQLQEKLRQQGVKHHLAAGIVLTGGAAQIEGLAACAQRVFHTQVRIGAPLNITGLTDYAQEPYYSTAVGLLHYGKESHLNGEAEVEKRVTASVGSWIKRLNSWLRKEF
modifications: Cy3 or Cy5 at the N-terminus in the labelled form (labelled CLEPTGG peptide conjugated to the 5xGly tag by sortagging); unlabelled protein also used; left off: TwinStrep-SUMO, N-terminal, cleaved | 5x
0.1µM FtsA, Exp. 2
  PCC FtsZ/FtsA: 0.41
0.1µM FtsA, replicate 1 (row printed 'goo')
  PCC FtsZ/FtsA: 0.73
0.2µM FtsA, Exp. 2
  PCC FtsZ/FtsA: 0.77
0.2µM FtsA, replicate 1 (row printed 'goo')
  PCC FtsZ/FtsA: 0.89
0.4 µM FtsA, mean ± s.d., WT vs R286W p-value 1.28 × 10^−5
  Pearson correlation coefficient (PCC) FtsA/FtsZ: 0.84 ± 0.05
0.4µM FtsA, Exp. 2
  PCC FtsZ/FtsA: 0.83
0.4µM FtsA, replicate 1 (row printed 'goo')
  PCC FtsZ/FtsA: 0.89
0.8µM FtsA, Exp. 2
  PCC FtsZ/FtsA: 0.83
0.8µM FtsA, replicate 1 (row printed 'goo')
  PCC FtsZ/FtsA: 0.88
All concentrations tested (0.1–0.8 µM)
  Pearson correlation coefficient (PCC) FtsA/FtsZ: around 0.8
